Targets include SMARCA5 (UniProt O60264); DDX3X (UniProt O00571); β-catenin (UniProt P35222); SMARCA4 (UniProt P51532); TRRAP (UniProt Q9Y4A5).
Holding throughout (assay): BioID proximity labelling, biotin pull-down, mass spectrometry
Common to all, as to details: HEK293T, n = 3, over EV-BirA control, read off a plot

UniProt P35222, sequence (P35222 whole entry): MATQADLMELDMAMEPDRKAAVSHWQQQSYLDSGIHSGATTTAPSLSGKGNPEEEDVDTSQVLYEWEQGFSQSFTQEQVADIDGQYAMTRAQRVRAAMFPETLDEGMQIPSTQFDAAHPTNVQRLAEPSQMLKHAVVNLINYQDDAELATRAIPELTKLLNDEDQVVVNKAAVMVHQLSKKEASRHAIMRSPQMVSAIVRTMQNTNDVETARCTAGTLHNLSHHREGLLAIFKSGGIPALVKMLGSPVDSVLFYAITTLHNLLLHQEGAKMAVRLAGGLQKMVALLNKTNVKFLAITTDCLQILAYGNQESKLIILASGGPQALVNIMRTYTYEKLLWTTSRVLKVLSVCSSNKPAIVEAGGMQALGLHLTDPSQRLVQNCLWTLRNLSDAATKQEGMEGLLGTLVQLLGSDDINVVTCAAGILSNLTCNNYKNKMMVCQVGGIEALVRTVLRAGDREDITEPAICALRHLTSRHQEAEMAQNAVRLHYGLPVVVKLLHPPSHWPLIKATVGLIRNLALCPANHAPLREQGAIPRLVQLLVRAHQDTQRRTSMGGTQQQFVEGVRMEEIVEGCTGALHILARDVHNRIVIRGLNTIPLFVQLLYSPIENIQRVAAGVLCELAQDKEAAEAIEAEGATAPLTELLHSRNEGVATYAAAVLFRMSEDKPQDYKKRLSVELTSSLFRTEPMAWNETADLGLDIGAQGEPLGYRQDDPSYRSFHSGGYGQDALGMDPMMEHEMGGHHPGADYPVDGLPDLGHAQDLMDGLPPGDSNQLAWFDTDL
UniProt Q9Y4A5, sequence (Q9Y4A5 whole entry): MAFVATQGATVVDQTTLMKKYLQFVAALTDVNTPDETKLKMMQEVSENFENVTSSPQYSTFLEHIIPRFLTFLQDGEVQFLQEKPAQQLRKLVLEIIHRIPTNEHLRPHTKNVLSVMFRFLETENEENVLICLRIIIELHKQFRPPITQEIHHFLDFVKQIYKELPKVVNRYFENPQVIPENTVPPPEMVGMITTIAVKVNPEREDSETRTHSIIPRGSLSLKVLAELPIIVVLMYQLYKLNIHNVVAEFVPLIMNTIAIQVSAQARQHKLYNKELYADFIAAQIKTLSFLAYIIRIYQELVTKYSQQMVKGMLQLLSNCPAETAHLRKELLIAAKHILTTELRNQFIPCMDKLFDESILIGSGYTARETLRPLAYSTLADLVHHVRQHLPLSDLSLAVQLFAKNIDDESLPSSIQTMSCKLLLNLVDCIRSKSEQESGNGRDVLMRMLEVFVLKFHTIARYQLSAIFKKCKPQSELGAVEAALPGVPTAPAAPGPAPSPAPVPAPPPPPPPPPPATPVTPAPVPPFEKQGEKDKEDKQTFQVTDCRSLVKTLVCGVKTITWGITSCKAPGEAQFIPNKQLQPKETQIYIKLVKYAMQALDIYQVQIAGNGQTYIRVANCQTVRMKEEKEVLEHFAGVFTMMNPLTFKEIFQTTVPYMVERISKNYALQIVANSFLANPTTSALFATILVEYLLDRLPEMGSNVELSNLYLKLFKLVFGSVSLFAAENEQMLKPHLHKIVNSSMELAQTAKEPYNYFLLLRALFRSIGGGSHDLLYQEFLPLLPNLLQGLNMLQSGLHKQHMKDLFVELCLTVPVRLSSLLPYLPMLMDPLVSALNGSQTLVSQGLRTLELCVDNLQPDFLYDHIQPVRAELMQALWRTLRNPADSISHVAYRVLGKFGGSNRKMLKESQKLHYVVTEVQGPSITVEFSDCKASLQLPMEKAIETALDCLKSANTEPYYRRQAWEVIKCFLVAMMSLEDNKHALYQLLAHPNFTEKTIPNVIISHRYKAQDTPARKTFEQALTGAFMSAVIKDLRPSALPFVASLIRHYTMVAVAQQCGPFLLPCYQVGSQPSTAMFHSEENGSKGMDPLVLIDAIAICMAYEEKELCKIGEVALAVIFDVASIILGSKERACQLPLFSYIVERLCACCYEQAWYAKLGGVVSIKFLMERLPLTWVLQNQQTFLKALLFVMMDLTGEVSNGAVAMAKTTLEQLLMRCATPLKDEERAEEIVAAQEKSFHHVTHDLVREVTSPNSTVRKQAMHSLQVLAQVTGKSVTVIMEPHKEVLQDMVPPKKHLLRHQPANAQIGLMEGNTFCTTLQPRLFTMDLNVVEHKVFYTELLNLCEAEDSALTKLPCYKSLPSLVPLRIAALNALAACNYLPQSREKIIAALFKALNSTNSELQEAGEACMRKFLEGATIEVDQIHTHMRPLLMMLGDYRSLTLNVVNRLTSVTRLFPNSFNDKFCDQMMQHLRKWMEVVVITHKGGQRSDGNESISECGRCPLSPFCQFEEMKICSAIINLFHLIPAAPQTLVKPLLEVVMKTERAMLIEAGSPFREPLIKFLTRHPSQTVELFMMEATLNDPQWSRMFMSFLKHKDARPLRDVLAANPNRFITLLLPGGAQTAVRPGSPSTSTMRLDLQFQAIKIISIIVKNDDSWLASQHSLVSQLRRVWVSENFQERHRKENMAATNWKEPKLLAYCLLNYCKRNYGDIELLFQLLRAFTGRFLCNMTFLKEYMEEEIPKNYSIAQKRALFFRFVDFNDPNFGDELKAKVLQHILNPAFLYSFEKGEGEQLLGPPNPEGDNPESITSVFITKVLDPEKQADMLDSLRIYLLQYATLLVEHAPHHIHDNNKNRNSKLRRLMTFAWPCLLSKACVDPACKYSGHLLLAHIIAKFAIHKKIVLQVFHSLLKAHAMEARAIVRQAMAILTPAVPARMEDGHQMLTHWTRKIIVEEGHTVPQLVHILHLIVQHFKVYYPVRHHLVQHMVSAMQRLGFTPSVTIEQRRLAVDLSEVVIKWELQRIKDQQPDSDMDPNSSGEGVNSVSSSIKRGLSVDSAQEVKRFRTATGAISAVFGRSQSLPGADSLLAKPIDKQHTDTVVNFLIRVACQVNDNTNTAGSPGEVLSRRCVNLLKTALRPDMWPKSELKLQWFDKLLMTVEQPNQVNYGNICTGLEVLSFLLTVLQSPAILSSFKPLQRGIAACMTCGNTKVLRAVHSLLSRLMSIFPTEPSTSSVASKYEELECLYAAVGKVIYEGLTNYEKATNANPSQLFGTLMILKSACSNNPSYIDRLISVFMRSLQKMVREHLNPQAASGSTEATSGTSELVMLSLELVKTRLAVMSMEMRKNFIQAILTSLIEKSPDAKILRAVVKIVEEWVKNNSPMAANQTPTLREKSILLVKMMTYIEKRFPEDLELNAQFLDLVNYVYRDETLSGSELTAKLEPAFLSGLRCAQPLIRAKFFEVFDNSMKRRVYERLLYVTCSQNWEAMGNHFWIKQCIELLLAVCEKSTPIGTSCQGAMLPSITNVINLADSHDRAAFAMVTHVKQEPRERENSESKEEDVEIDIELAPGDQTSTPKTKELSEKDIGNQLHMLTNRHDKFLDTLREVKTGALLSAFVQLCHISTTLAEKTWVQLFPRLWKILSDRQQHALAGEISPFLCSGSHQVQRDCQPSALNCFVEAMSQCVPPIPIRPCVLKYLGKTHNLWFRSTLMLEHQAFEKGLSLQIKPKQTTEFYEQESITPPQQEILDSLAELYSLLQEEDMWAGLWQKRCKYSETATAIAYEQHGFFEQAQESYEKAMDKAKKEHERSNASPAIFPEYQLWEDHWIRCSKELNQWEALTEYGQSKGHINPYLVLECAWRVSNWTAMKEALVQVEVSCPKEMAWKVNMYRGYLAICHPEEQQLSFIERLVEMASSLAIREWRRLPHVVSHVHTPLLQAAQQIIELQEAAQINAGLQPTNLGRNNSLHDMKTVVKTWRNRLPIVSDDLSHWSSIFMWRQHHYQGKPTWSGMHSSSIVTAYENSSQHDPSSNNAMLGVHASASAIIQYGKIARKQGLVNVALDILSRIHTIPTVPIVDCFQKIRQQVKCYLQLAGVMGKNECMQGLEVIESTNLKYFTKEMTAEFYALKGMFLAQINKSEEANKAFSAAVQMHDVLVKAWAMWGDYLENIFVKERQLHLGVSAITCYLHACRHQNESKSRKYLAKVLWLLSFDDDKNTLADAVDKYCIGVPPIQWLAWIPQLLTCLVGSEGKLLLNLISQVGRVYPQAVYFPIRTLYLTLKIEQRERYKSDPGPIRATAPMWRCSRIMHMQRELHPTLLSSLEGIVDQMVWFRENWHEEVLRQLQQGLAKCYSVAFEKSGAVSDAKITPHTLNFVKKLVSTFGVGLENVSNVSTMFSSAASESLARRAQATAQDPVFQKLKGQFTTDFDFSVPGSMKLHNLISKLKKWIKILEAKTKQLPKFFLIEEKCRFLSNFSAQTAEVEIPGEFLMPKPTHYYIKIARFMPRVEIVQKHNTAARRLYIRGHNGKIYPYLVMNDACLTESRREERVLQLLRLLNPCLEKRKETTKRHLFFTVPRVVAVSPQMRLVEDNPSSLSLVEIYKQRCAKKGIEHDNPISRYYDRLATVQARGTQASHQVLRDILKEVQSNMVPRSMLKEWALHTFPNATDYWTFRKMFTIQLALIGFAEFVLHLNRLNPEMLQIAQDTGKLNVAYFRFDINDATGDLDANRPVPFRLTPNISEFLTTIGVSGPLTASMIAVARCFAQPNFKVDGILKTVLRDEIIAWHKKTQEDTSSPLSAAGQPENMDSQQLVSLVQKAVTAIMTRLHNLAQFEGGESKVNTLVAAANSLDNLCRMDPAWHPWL

On to “TBX3-WT-BirA (from UniProt O15119) RRM del”, for which the other: SaintScore with SMARCA5 (WNT-OFF (10 nM LGK974)) is 0.67; with SMARCA5 (WNT-ON (10 µM CHIR99021)), 0.67; with DDX3X (WNT-OFF (10 nM LGK974)), 1; with DDX3X (WNT-ON (10 µM CHIR99021)), 0.65; with β-catenin (WNT-OFF (10 nM LGK974)), 0.33; with β-catenin (WNT-ON (10 µM CHIR99021)), 0.67. Besides, the other: SaintScore turned out to be 1 with SMARCA4 (WNT-OFF (10 nM LGK974)), 0.93 with SMARCA4 (WNT-ON (10 µM CHIR99021)), 1 with TRRAP (WNT-OFF (10 nM LGK974)) and 0.67 with TRRAP (WNT-ON (10 µM CHIR99021)).
On to “TBX3-WT-BirA (from UniProt O15119) NPF del”, for which the other: SaintScore with SMARCA5 (WNT-OFF (10 nM LGK974)) came out at 0; with SMARCA5 (WNT-ON (10 µM CHIR99021)), 0.67; with DDX3X (WNT-OFF (10 nM LGK974)), 0.32; in the experiment with DDX3X (WNT-ON (10 µM CHIR99021)), 0.71; in the experiment with β-catenin (WNT-ON (10 µM CHIR99021)), 0.67; in the experiment with SMARCA4 (WNT-OFF (10 nM LGK974)), 0. Also, the other: SaintScore is 0.67 in the experiment with SMARCA4 (WNT-ON (10 µM CHIR99021)), 0 with TRRAP (WNT-OFF (10 nM LGK974)) and 0.67 in the experiment with TRRAP (WNT-ON (10 µM CHIR99021)).

Source of the values: publication PMC12088458.
